Assay results published in US20210054355A1 (NEW YORK UNIVERSITY, published 2021).
Where a chain is given by its changes, count along the chain named. In names and notes the source's numbering stands.

Key:
[1] = molecular target: T1, FGFR1c^ecto/ΔSLBS′ (FGFR1c^ecto carrying V221D) (human, UniProt P11362 142-365); assay: SEC-MALS, 1:1:1 ternary complex with FGF23 and αKlotho^ecto
T1 construct: also called FGFR1c^ΔSLBS′
T1 sequence: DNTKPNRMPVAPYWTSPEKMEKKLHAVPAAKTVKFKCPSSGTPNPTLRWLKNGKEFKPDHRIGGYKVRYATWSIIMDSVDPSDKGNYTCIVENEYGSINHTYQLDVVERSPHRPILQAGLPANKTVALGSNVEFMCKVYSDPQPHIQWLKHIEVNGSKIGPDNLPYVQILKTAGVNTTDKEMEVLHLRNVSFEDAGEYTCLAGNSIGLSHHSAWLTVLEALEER
Method: (§1) A Superdex 200 10/300 GL column (GE Healthcare, USA) was placed in-line between the HPLC pump (Waters 1525) and the HPLC UV (Waters 2998 Photodiode Array), laser light scattering, and refractive index detectors. Light scattering and refractive index detectors were calibrated following the manufacturer's guidelines. The refractive index increment (dn/dc) in which n is the refractive index and c is the concentration of the mixture of DDM and CHS in 20 mM Tris-HCl pH 8.0 buffer containing 300 mM NaCl, was determined offline using an Optilab T-rEX refractive index detector. Monomeric bovine serum albumin (#23210, Thermo Scientific, USA) was used as part of routine data quality control.
(§2) 60 ml or more of 25 mM HEPES pH 7.5 buffer containing 150 mM NaCl were passed through the system at a flow rate of 0.5 mL/min to equilibrate the Superdex 200 10/300 GL column and establish stable baselines for light scattering and refractive index detectors. Purified αKlotho^ecto, FGER1c^ecto (wild type or mutant), and FGF23 (wild type or mutant) proteins were mixed at a molar ratio of 1:1:1 and concentrated to 12.5 μM. 50 μl of protein samples with a molar equivalent of a heparin hexasaccharide (#H006, Iduron, Manchester, U.K.) were injected onto the gel filtration column, and the column eluent was continuously monitored for 280 nm absorbance, laser light scattering, and refractive index. In a separate set of experiments, 50 μl of 1:1:1 FGF23-FGFR1c^ecto-αKlotho^ecto ternary complex at 12.5 μM concentration was mixed with heparin hexasaccharide at molar ratios of 1:0.25, 1:0.5, 1:1, or 1:2, and the mixtures were injected onto the gel filtration column. 50 μl of ternary complex without added heparin hexasaccharide were run as a control. In yet another set of experiments, αKlotho^ecto (wild type or mutant) and FGER1c^ecto were mixed at a molar ratio of 1:1, and 50 μl of concentrated protein mixtures were injected onto the gel filtration column. 50 μl of concentrated αKlotho^ecto (wild type or mutant) alone were run as a control in these experiments. […]

[2] = molecular target: T2, FGFR1c^ecto/ΔRRBS (FGFR1c^ecto carrying A171D) (human, UniProt P11362 142-365); assay: as above
T2 construct: also called FGFR1^ΔRRBS
T2 sequence: T1 sequence with A30D, D80V
Method: as §1, §2

[3] = molecular target: T3, FGFR1c^ecto (human FGFR1c ligand-binding domain, D2, D3 and D2-D3 linker) (human, UniProt P11362 142-365); assay: crystal structure of the ternary complex, 3.0 Å
T3 sequence: T1 sequence with D80V
Method: To prepare the FGF23-FGFR1c^ecto-αKlotho^ecto complex, its purified components were mixed at a molar ratio of 1.2:1.2:1 and spin-concentrated using an Amicon Ultra-15 concentrator (#UFC901024, Merck Millipore, Germany). The concentrated sample was applied to a Superdex 200 column (GE Healthcare, USA) and eluted isocratically in 25 mM HEPES pH 7.5 buffer containing 500 mM NaCl and 100 mM (NH₄)₂SO₄. Column peak fractions were analyzed by SDS-PAGE and peak fractions containing the ternary complex were concentrated to 7 mg/ml. Concentrated ternary complex was screened for crystallization by sitting drop vapor diffusion. A range of commercially available crystallization screen kits was used: Protein Complex Suite (#130715), Classics Suite (#130701), Classics II Suite (#130723), and Classics Lite Suite (#130702) from Qiagen, Germany; Crystal Screen (#HR2-110), Crystal Screen 2 (#HR2-112), Crystal Screen Lite (#HR2-128), PEG/Ion Screen (#HR2-126), and PEGRx1 (#HR2-082) from Hampton Research, USA; and PEG Grid Screening Kit (#36436) and Crystallization Cryo Kit (#75403) from Sigma-Aldrich, USA. Drops consisting of 100 nl reservoir solution and 100 nl protein complex solution were equilibrated against 100 μl well volume set up in 96-well plates (Fisher Scientific, USA) using a Mosquito crystallization robot (TTP Labtech, U.K.). […]

binding result [1]: binds
binding result [2]: binds
binding result [3]: binds
B1: FGF23^WT (human FGF23 Y25 to S205 with R176Q/R179Q, protease-resistant minimal protein) (ligand)
chain: YPNASPLLGSSWGGLIHLYTATARNSYHLQIHKNGHVDGAPHQTIYSALMIRSEDAGFVVITGVMSRRYLCMDFRGNIFGSHYFDPENCRFQHQTLENGYDVYHSPQYHFLVSLGRAKRAFLPGMNPPPYSQFLSRRNEIPLIHFNTPIPRQHTQSAEDDSERDPLNVLKPRARMTPAPAS
notes: also called wild-type FGF23; minimal FGF23
